According to US20040018971A1 (published 2004):
Where no end group is shown, it is not given here. [ ]: non-standard residue; d: D form. Abu = CC[C@H](N)C(=O)O

What was measured:
HLA-A*0301 [1] = biological target: T1, HLA-A*0301 (human); assay: competition with 125I-labelled probe peptide on purified HLA-A*0301, gel filtration; ratio to standard peptide 941.12
T1 construct: Purified HLA molecule, 5 to 500 nM in the assay; also called HLA-A3

HLA-A*3101 = HLA-A*3101 (human); assay: inhibition of 125I probe peptide binding to purified HLA
HLA-A*3301 = HLA-A*3301 (human); assay: as above
HLA-A*0301 [2] = biological target: HLA-A*0301 (human); assay: as above
HLA-A*1101 = HLA-A*1101 (human); assay: as above
HLA-A*6801 = HLA-A*6801 (human); assay: as above

Binder | relative binding ratio (IC50 of standard peptide / IC50 of test peptide) (HLA-A*0301 [1]) | IC50 (HLA-A*3101) | IC50 (HLA-A*3301) | IC50 (HLA-A*0301 [2]) | IC50 (HLA-A*1101) | IC50 (HLA-A*6801)
TVPWDQLFR [HER2/neu peptide, position 479, 9 amino acids] | 0.0006 relative binding ratio |  |  |  |  | 
VLQGLPREY [HER2/neu peptide, position 546, 9 amino acids] | 0.0012 relative binding ratio |  |  |  |  | 
VSEFSRMAR [HER2/neu peptide, position 973, 9 amino acids] | -0.0002 relative binding ratio |  |  |  |  | 
VTAEDGTQR [HER2/neu peptide, position 322, 9 amino acids] | 0.0002 relative binding ratio |  |  |  |  | 
VTGASPGGLR [HER2/neu peptide, position 129, 10 amino acids] | 0.0002 relative binding ratio |  |  |  |  | 
VVQGNLELTY [HER2/neu peptide, position 55, 10 amino acids] | 0.0024 relative binding ratio |  |  |  |  | 
WMALESILR [HER2/neu peptide, position 888, 9 amino acids] | -0.0002 relative binding ratio |  |  |  |  | 
YVLIAHNQVR [HER2/neu peptide, position 83, 10 amino acids] | 0.0043 relative binding ratio |  |  |  |  | 
YVMAGVGSPY [HER2/neu peptide, position 772, 10 amino acids] | 0.01 relative binding ratio |  |  |  |  | 
IVKGGVLIQK (synthetic analog peptide) [Her2/neu.148.V2K10] |  | 450 nM | 6590 nM | 26 nM | 102 nM | 27 nM
TILWKDIFHK (synthetic peptide) [Her2/neu.166] |  | 487 nM | 690 nM | 256 nM | 1.7 nM | 200 nM
TVLWKDIFHR (synthetic analog peptide) [Her2/neu.166.V2R10] |  | 600 nM | 76 nM | 8460 nM | 286 nM | 42 nM
IVWKDIFHK (synthetic analog peptide) [Her2/neu.167.V2] |  | 247 nM | 853 nM | 23 nM | 40 nM | 
TV[Abu]AGG[Abu]AR (synthetic analog peptide; also called TVBAGGBAR) [Her2/neu.218.B3B7] |  | 247 nM | 242 nM | 314 nM | 111 nM | 8 nM

Now from value to binder:

relative binding ratio (IC50 of standard peptide / IC50 of test peptide) (HLA-A*0301 [1]) | IC50 (HLA-A*3101) | IC50 (HLA-A*3301) | IC50 (HLA-A*0301 [2]) | IC50 (HLA-A*1101) | IC50 (HLA-A*6801) | Binder
0.01 relative binding ratio |  |  |  |  |  | VARCPSGVK [HER2/neu peptide, position 597, 9 amino acids]
0.0033 relative binding ratio |  |  |  |  |  | VLIAHNQVR [HER2/neu peptide, position 84, 9 amino acids]
0.082 relative binding ratio |  |  |  |  |  | VLVKSPNHVK [HER2/neu peptide, position 851, 10 amino acids]
0.0002 relative binding ratio |  |  |  |  |  | WIPDGENVK [HER2/neu peptide, position 739, 9 amino acids]
0.0085 relative binding ratio |  |  |  |  |  | WMALESILRR [HER2/neu peptide, position 888, 10 amino acids]
-0.0002 relative binding ratio |  |  |  |  |  | WMIDSECRPR [HER2/neu peptide, position 959, 10 amino acids]
0.0003 relative binding ratio |  |  |  |  |  | YLEDVRLVHR [HER2/neu peptide, position 835, 10 amino acids]
 | 667 nM | 6170 nM | 55 nM |  |  | QLRSLTEILK (synthetic peptide) [Her2/neu.141]
 | 25 nM | 121 nM | 275 nM |  |  | ILKGGVLIQR (synthetic peptide) [Her2/neu.148]
 | 82 nM | 967 nM | 39 nM | 19 nM | 1740 nM | ILWKDIFHK (synthetic peptide) [Her2/neu.167]
 | 6 nM | 16 nM | 143 nM | 286 nM | 15 nM | IVWKDIFHR (synthetic analog peptide) [Her2/neu.167.V2R9]
